Reference: article PMC3107778

Key:
[1] = biological target: YqiC of Salmonella enterica serovar Typhimurium (Salmonella enterica serovar Typhimurium ATCC 14028); test: SEC-MALS; static light scattering (90°) and refractive index coupled to a Superdex 75 column; eluted with PBS (methods) or 50 mM Tris-HCl, 150 mM NaCl pH 8; calibrated with BSA; single homogeneous peak
[2] = biological target: YqiC of Salmonella enterica serovar Typhimurium (Salmonella enterica serovar Typhimurium ATCC 14028); test: cross-linking; purified YqiC with ethylene glycol bis(succinimidylsuccinate) (EGS) at 0.5, 1.0 and 5.0 mM, 30 min at room temperature in phosphate-buffered saline, stopped with 50 mM Tris-HCl pH 8.0; products on 15% SDS-PAGE, Coomassie staining

YqiC of Salmonella enterica serovar Typhimurium (from UniProt A0A2X4T3G4 1-98) (natural protein)
stoichiometry N [1]: 3 | stoichiometry N [2]: 3
